The record followed here is patent US20160331821A1 (AGENUS, published 2016).

Square brackets hold non-standard residues; d marks the D form. Ends that are not written are not given here. pS = N[C@@H](COP(=O)(O)O)C(=O)O

For experiment [1], the target named is T1, recombinant human Hsc70 (Genbank Accession No. P11142.1) (human, UniProt P11142 1-646, limits assumed).
T1 construct: also called rhHsc70; rh-Hsc70
Kind of experiment: size exclusion chromatography after incubating peptide with Hsc70 in PBS, 37 C, 1 h, 4:1 molar excess peptide:Hsc70. The protocol:
Four peptides (Table 9) containing a phosphorylated serine residue were synthesized to 95% purity (GenScript, Cambridge, Mass.). […] These peptides were individually incubated with Hsc70 in PBS at 37° C. for 1 hour at a 4:1 molar excess (peptide:Hsc70) to form non-covalent Hsc70-peptide complexes. After incubation, the complexes were analyzed by SEC to quantify the proportion of Hsc70 molecules loaded with peptide.
For orientation: SEC sorts molecules by how far they enter the pores of the column.

The target in experiment [2] is T2, recombinant human Hsc70 (Genbank Accession No. P11142.1) (Biomay AG) (human, UniProt P11142 1-646, limits assumed).
T2 construct: Resolves on SEC as a monomeric and an oligomeric form; also called rhHsc70; rh-Hsc70
T2 sequence (P11142 whole entry, one chain of several): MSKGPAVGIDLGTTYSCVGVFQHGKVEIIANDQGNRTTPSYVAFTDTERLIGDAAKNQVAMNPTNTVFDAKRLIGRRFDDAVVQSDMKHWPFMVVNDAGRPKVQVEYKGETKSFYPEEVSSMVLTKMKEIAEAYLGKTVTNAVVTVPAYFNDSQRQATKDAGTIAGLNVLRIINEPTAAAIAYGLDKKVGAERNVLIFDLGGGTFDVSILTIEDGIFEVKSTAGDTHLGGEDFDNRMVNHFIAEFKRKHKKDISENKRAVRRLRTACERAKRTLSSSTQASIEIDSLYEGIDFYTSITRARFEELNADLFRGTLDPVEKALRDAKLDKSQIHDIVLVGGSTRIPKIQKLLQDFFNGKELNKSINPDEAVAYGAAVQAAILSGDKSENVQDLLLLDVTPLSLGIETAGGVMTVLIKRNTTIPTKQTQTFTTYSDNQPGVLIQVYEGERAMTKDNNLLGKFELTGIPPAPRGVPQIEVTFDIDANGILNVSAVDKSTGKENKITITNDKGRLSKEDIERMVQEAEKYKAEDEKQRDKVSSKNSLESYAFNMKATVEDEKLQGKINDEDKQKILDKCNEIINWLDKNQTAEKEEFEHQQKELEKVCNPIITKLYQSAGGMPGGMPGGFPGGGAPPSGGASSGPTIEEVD
Kind of experiment: size exclusion chromatography; Hsc70:peptide molar ratio 1:2, same result at 1:5. The protocol: Standard size exclusion chromatography was carried out using 7 μM of recombinant human Hsc70 (Genbank Accession No. P11142.1) (Biomay AG) in a reaction buffer containing 20 mM HEPES and 200 mM KCL in a final volume of 50 μl. Reactions were incubated at 37° C. for 1 or 2 hours and centrifuged 2 min at 13000 RPM. Reaction products (10 μg) were resolved on a TSKgel SuperSW3000, 4 μm particle size, 25 nm pore size gel filtration chromatography column (Tosoh Bioscience). […] The percentage of Hsc70 complexed with peptide in each reaction mixture was calculated by measuring the surface area of the appropriate peak.
The comparative effect of placing the high affinity Hsc70 binding sequence at the N- and C-terminus of the ovalbumin peptide, linked via the FFRK (SEQ ID NO:447) linker in both cases, was also tested. […] The sequence of the test peptide with the C-terminal high affinity Hsc70 binding sequence was […] (SEQ ID NO:449), and the sequence of the test peptide with N-terminal high affinity Hsc70 binding sequence was […] (SEQ ID NO:450).

T1 sequence (P11142 whole entry, one chain of several): as above

Consider RVA[pS]PTSGVFFRKNLLRLTG, for which, in experiment [1], the “Percentage of Hsc70 loaded with peptide” value came to 75%.
As for NLLRLTGFFRKGLLG[pS]PVRA, the “Percentage of Hsc70 loaded with peptide” value in experiment [1] came to 41%.
In the case of GLLG[pS]PVRAFFRKNLLRLTG, the “Percentage of Hsc70 loaded with peptide” value in experiment [1] is 74%.
Turning to NLLRLTGFFRKSIINFEKL, the binding result in experiment [2] was “binds”.
In the case of NLLRLTGFFRKRVA[pS]PTSGV, in experiment [1], the “Percentage of Hsc70 loaded with peptide” value was determined as 34%.
